Here are results for 4 molecules from publication PMC7154865, “High-Level Expression, Purification and Initial Characterization of Recombinant Arabidopsis Histidine Kinase AHK1” (Plants, 2020).

For test [1], the target named is AHP1 (Arabidopsis thaliana) (UniProt Q9ZNV9). As to conditions: cited from earlier work.
The target in test [2] is ETR1 (Arabidopsis thaliana) (UniProt P49333). Briefly: MST. As to conditions: cited from earlier work.
The target in test [3] is ETR2 (Arabidopsis thaliana) (UniProt Q0WPQ2). In words: MST. To be noted: cited from earlier work.
The target of test [4] is recombinant full-length Arabidopsis histidine kinase AHK1 (H10-TEV-AHK1), solubilized in FosCholine-16 (Arabidopsis thaliana) (UniProt Q9SXL4). Briefly: MST; 40 nM AlexaFluor488-labelled AHK1 titrated with unlabelled AHK1 (12 uM to 0.4 nM); 50 mM Tris, 300 mM NaCl, 0.015% FosCholine-16, glycerol, pH 7.6; 40% MST power, 70% LED power; initial fluorescence evaluated; one-binding-site model; apparent Kd; monomer to dimer.

For test [5], the target named is T1, recombinant full-length Arabidopsis histidine kinase AHK1 (H10-TEV-AHK1), solubilized in FosCholine-16 (Arabidopsis thaliana, UniProt Q9SXL4 1-1207, AlexaFluor488-NHS label on the labelled copy (40 nM) used in MST; the titrated copy is unlabelled).
T1 construct: Arabidopsis histidine kinase 1 (AHK1), Arabidopsis thaliana, full length; cloned into pET16b-H10-TEV with primers from the ATG to the stop codon; a TEV site lies between the tag and AHK1; No step that cleaves the tag is described; also called AHK1 sensor kinase; AHK1 osmosensor; source: E. coli BL21 (DE3) with pRARE, solubilized with 1% FosCholine-16, purified (Ni-NTA)
T1 sequence (looked up): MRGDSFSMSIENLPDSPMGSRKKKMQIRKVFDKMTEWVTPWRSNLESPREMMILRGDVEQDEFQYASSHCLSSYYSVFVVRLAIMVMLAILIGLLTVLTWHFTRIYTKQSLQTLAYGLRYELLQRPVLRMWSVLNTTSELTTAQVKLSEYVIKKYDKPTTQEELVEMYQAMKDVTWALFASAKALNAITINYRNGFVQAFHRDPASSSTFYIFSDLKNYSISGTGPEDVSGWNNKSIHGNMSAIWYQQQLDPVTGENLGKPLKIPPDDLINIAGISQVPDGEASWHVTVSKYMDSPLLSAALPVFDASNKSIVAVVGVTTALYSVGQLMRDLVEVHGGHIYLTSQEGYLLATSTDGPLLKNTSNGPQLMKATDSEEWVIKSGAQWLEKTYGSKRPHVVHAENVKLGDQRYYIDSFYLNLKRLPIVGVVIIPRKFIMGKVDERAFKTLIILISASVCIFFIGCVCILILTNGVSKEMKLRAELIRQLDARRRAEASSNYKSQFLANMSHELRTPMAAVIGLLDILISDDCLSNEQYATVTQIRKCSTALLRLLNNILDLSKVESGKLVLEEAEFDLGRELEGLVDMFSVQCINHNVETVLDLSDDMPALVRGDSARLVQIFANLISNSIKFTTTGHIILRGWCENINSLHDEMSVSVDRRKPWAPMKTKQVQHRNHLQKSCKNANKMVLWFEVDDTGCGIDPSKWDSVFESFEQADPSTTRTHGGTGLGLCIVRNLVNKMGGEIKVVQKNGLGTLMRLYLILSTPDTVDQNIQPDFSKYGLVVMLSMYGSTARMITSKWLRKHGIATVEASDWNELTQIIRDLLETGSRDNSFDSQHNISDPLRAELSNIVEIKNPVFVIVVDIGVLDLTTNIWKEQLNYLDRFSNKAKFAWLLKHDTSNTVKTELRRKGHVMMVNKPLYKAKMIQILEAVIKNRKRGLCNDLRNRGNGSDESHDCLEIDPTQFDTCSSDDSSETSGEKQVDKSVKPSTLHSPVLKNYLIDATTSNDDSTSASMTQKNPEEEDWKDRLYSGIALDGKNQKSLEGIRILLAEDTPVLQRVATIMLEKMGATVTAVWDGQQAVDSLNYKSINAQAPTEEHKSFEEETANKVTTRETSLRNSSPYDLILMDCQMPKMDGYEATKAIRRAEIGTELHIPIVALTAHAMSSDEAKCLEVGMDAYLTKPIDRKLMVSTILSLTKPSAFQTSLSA
Briefly: MST; 40 nM AlexaFluor488-labelled AHK1 titrated with AHP2-GST (12.5 uM to 0.4 nM); HEPES/Tris 50 mM, 300 mM NaCl, FosCholine-16, 5% glycerol, pH 7.6; 40% MST power, 30% LED power; T-Jump evaluated; one-binding-site model; apparent Kd; seven measurements. To be noted: both partners purified.

AHP1 (Arabidopsis thaliana), sequence (Q9ZNV9 whole entry): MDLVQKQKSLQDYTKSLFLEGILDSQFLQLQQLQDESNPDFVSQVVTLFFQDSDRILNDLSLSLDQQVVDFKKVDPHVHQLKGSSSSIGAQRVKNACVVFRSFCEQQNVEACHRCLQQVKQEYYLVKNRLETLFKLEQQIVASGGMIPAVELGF

For the molecule ETR1 (from UniProt P49333), the Kd in test [1] was 1500 nM; in test [2], 326 nM.
For ETR2 (from UniProt Q0WPQ2), in test [3], the Kd was 96 nM.
Take “recombinant full-length Arabidopsis histidine kinase AHK1 (H10-TEV-AHK1), solubilized in FosCholine-16 (from UniProt Q9SXL4 1-1207) (receptor)”: the Kd in test [4] worked out at 208 nM.

B1: GST-fusion protein of Arabidopsis histidine phosphotransfer protein 2 (AHP2) (natural protein, Arabidopsis thaliana, UniProt Q9ZNV8 1-156, looked up)
chain: MDALIAQLQRQFRDYTISLYQQGFLDDQFTELKKLQDDGSPDFVSEVLSLFFEDCVKLISNMARALDTTGTVDFSQVGASVHQLKGSSSSVGAKRVKTLCVSFKECCEAKNYEGCVRCLQQVDIEYKALKTKLQDMFNLEKQIIQAGGIVPQVDIN
notes: Arabidopsis histidine phosphotransfer protein 2 (AHP2), Arabidopsis thaliana; cDNA cloned into pGEX-6P-1; The apparent mass is 44 kDa; also called AHP2-GST; GST-tagged AHP2
For B1, in test [5], the Kd turned out to be 317 ± 62 nM.
